In patent publication US20240093191A1, “COMPOSITIONS AND METHODS FOR TREATING DISEASE ASSOCIATED WITH DUX4 OVEREXPRESSION” (RESEARCH INSTITUTE AT NATIONWIDE CHILDREN'S HOSPITAL, priority 2021, published 2024):

Assays:
Format in all cases: cell-based, human
mir-675-5p [1] = assay: Small-transcript northern blot of mir-675 processing in HEK293 cells; conditions: HEK293; anti-mir-675-5p biotinylated probe
Excerpt: Small-Transcript Northern Blots. […] (SEQ ID NO: 148)).

mir-675-5p [2] = assay: ddPCR of all mature mir-675-5p sequences (TaqMan Advanced miRNA cDNA synthesis) in HEK293 cells
Method: Digital Droplet PCR (ddPCR). For mir-675 and mi405 constructs, RNA extraction was carried out as described for QPCR above. For cDNA synthesis, the TaqMan advanced cDNA synthesis kit (Thermo Fisher) was used and cDNA was prepared by following manufacturer's instructions. ddPCR was carried out using 1× ddPCR Supermix for probes (No dUTP) (Bio-Rad), 1× commercially available mir-675 advanced TaqMan probe, or a custom made mi405 advanced TaqMan probe (ThermoFisher) and 50 ng of cDNA. For DUX4 cDNA synthesis, the High-Capacity cDNA Reverse Transcription Kit (Applied Biosystems) was used according to manufacturer's instructions. Within the same cDNA reaction, 1×RT random hexamer primers and 25 pmoles of the Oligo(dT) primer were used to generate cDNA for DUX4 and DUX4-responsive biomarkers and for mouse Rpl13A, used as a reference gene. To quantify DUX4, the ddPCR reaction mixture (20 μL) contained 1× ddPCR Evagreen Supermix (Bio-Rad), 1 μM of forward and reverse DUX4 primers (Sharma et al., J Genet Syndr Gene Ther 2016 August; 7(4):303. doi: 10.4172/2157-7412.1000303. Epub 2016 Aug. 8), and 50 ng of cDNA. To quantify Rpl13A and DUX4-responsive biomarkers (Trim36 and Wfdc3), the 1× ddPCR Supermix for probes (No dUTP) and TaqMan specific probes were used for each of the genes. Droplets were generated using the Automatic Droplet generator QX200 AutoDG (Bio-Rad), the reactions were amplified in a C1000 Touch™ Thermal Cycler with 96-Deep Well Reaction Module (Bio-Rad). Cycling conditions were set up following the QX200 ddPCR Evagreen Supermix protocol. All assays are compatible with an annealing temperature of 58° C. Droplets were then read using the QX200 droplet reader (Bio-Rad). Finally, data were analyzed using the QuantaSoft analysis software (Bio-Rad). For quantification, each reaction of 20 μL was estimated to give at least 10,000 acceptable droplets.
In order to quantify the level of all these mature sequences, the TaqMan advanced miRNA cDNA synthesis method that uses universal reverse transcription (RT) chemistry to synthesize cDNA templates that can be quantified using the TaqMan Advanced miRNA probes was used. In this method, most of the processed mature miRNA sequences were quantified.

DUX4 protein = assay: Western blot of V5-tagged DUX4 protein in co-transfected HEK293 cells; conditions: CMV.DUX4-FL/CMV.eGFP; HEK293; molar ratio 1 to 3; eGFP normalizer; relative to U6-milacZ; N = 3-8
Method: Western Blots. […] 50 mM Tris (pH 7.5-8.0), 150 mM NaCl, 0.1% (v/v) SDS, 0.5% (v/v) deoxycholate, 1% (v/v) triton X-100 (Fisher Scientific) and 1 tablet of protease inhibitor (ThermoFisher Scientific) per 10 mL of buffer. The total protein extract was quantified using the DC Protein Assay (Bio-Rad). Twenty microgram samples were separated on 12% SDS-PAGE, transferred to nitrocellulose membrane, using the wet transfer system, and incubated with the following antibodies: mouse monoclonal antibody to V5 (horseradish peroxidase [HRP]-coupled) [1:5,000 in 5% milk TBST buffer (150 mM NaCl, 50 mM Tris-HCl pH 7.4 and 0.1% Tween 20 (Fisher Scientific)), R961-25; Invitrogen); rabbit polyclonal eGFP antibody (1:50,000 in 3% BSA PBS, ab290; Abcam); mouse monoclonal β-actin antibodies (1:60,000; Sigma, St Louis, MO); overnight at 4° C. When using the eGFP antibody, membranes were blocked 30 mins with 3% BSA PBS prior to blotting. eGFP-probed blots were washed five times, 5 min each with 0.5% Tween 20 (Fisher Scientific) in TBST buffer, and then incubated with HRP-coupled goat anti-rabbit secondary antibody (1:250,000 in 3% BSA PBS, 115-035-144; Jackson ImmunoResearch) for 2 hours at room temperature. V5-probed blots were washed five times, 5 min each with 0.1% Tween 20 in TBST buffer. Following washes, blots were developed using Immobilon Western HRP substrate (Millipore) and exposed to film. DUX4.V5, and eGFP quantification was assessed using ImageJ.

B1: U6.mir-675F: U6 mir-675 construct with flanking sequences similar to H1.mir-675 (nucleic acid)
DNA: GACGCCGCCATCTCTAGGCCCGCGCCGGCCCCCTCGCACAGACTTGTGGGAGAAGCTCGGCTACTCCCCTGCCCCGGTTAATTTGCATATAATATTTCCTAGTAACTATAGAGGCTTAATGTGCGATAAAAGACAGATAATCTGTTCTTTTTAATACTAGCTACATTTTACATGATAGGCTTGGATTTCTATAAGAGATACAAATACTAAATTATTATTTTAAAAAACAGCACAAAAGGAAACTCACCCTAACTGTAAAGTAATTGTGTGTTTTGAGACTATAAATATCCCTTGGAGAAAAGCCTTGTTTGCCCCAGGGTCTGGTGCGGAGAGGGCCCACAGTGGACTTGGTGACGCTGTATGCCCTCACCGCTCAGCCCCTGGGGAATTCTTCGATTCTGCTTTTTT
mature mir-675-5p bands on northern blot (mir-675-5p [1]): detectable mir-675 mature sequences | fold change of all mature mir-675-5p sequences compared to U6.mir-675 (mir-675-5p [2]): 133±38% | Average inhibition efficiency (%) of DUX4 protein levels (DUX4 protein): 64 ± 6 (N = 6) %

B2: U6.mir-675-2.1: mir-675 construct with modified 5' and 3' flanking sequences (nucleic acid)
DNA: TCTAGAGATCCGACGCCGCCATCTCTAGGCCCGCGCCGGCCCCCTCGCACAGACTTGTGGGAGAAGCTCGGCTACTCCCCTGCCCCGGTTAATTTGCATATAATATTTCCTAGTAACTATAGAGGCTTAATGTGCGATAAAAGACAGATAATCTGTTCTTTTTAATACTAGCTACATTTTACATGATAGGCTTGGATTTCTATAAGAGATACAAATACTAAATTATTATTTTAAAAAACAGCACAAAAGGAAACTCACCCTAACTGTAAAGTAATTGTGTGTTTTGAGACTATAAATATCCCTTGGAGAAAAGCCTTGTTTGCCCCAGGGTCTGGTGCGGAGAGGGCCCACAGTGGACTTGGTGACGCTGTATGCCCTCACCGCTCAGCCCCTGGGGTAACTCCTAATCACACTTTTTT
mature mir-675-5p bands on northern blot (mir-675-5p [1]): detectable mir-675 mature sequences | fold change of all mature mir-675-5p sequences compared to U6.mir-675 (mir-675-5p [2]): 142±45% | Average inhibition efficiency (%) of DUX4 protein levels (DUX4 protein): 64 ± 4 (N = 8) %

B3: U6.mir-675-2.5: mir-675 construct with modified 5' and 3' flanking sequences (nucleic acid)
DNA: TCTAGAGATCCGACGCCGCCATCTCTAGGCCCGCGCCGGCCCCCTCGCACAGACTTGTGGGAGAAGCTCGGCTACTCCCCTGCCCCGGTTAATTTGCATATAATATTTCCTAGTAACTATAGAGGCTTAATGTGCGATAAAAGACAGATAATCTGTTCTTTTTAATACTAGCTACATTTTACATGATAGGCTTGGATTTCTATAAGAGATACAAATACTAAATTATTATTTTAAAAAACAGCACAAAAGGAAACTCACCCTAACTGTAAAGTAATTGTGTGTTTTGAGACTATAAATATCCCTTGGAGAAAAGCCTTGTTAACGCGAATCACACTGCCCCAGGGTCTGGTGCGGAGAGGGCCCACAGTGGACTTGGTGACGCTGTATGCCCTCACCGCTCAGCCCCTGGGGATACTCCTAATCACACTTTTTT
fold change of all mature mir-675-5p sequences compared to U6.mir-675 (mir-675-5p [2]): 153±52% | Average inhibition efficiency (%) of DUX4 protein levels (DUX4 protein): 56 ± 6 (N = 5) %

B4: U6.mir-675-2.3: mir-675 construct with modified 5' and 3' flanking sequences (nucleic acid)
DNA: TCTAGAGATCCGACGCCGCCATCTCTAGGCCCGCGCCGGCCCCCTCGCACAGACTTGTGGGAGAAGCTCGGCTACTCCCCTGCCCCGGTTAATTTGCATATAATATTTCCTAGTAACTATAGAGGCTTAATGTGCGATAAAAGACAGATAATCTGTTCTTTTTAATACTAGCTACATTTTACATGATAGGCTTGGATTTCTATAAGAGATACAAATACTAAATTATTATTTTAAAAAACAGCACAAAAGGAAACTCACCCTAACTGTAAAGTAATTGTGTGTTTTGAGACTATAAATATCCCTTGGAGAAAAGCCTTGTTTGAATCACACTGCCCCAGGGTCTGGTGCGGAGAGGGCCCACAGTGGACTTGGTGACGCTGTATGCCCTCACCGCTCAGCCCCTGGGGATACTCCTAATCACACTTTTTT
fold change of all mature mir-675-5p sequences compared to U6.mir-675 (mir-675-5p [2]): 114±8% | Average inhibition efficiency (%) of DUX4 protein levels (DUX4 protein): 64 ± 10 (N = 8) %
